We go through 10 molecules from patent US7537764.

Where a chain is given by its changes, count along the chain named. Read-outs that look alike come from different tables or passages of the source.

For test [1], the target named is West Nile virus strain USA99b (strain 385-99), whole virus (West Nile virus strain 385-99 (USA99b)). Description: phage ELISA on coated whole inactivated WNV. A general note: An ELISA detects its analyte on a solid surface through an enzyme-linked reagent.
Test [2] has the same target. Description: cell-based or functional assay.
The target is the same in test [3]. Description: ELISA on irradiated WNV; IgG1 at 0.039 µg/ml.
The target is the same in test [4]. Briefly: ELISA on irradiated WNV; IgG1 at 0.078 µg/ml.
Test [5] shares this target. Briefly: ELISA on irradiated WNV; IgG1 at 0.160 µg/ml.
The target is the same in test [6]. Description: ELISA on irradiated WNV; IgG1 at 0.310 µg/ml.
Test [7] shares this target. Briefly: ELISA on irradiated WNV; IgG1 at 0.630 µg/ml.
Test [8] shares this target. Description: ELISA on irradiated WNV; IgG1 at 1.250 µg/ml.
Test [9] has the same target. Briefly: ELISA on irradiated WNV; IgG1 at 2.500 µg/ml.
Test [10] shares this target. Description: ELISA on irradiated WNV; IgG1 at 5.000 µg/ml.
For test [11] the target is unchanged. Description: ELISA on irradiated WNV; IgG1 at 10.000 µg/ml.
Test [12] has the same target. Briefly: ELISA on irradiated WNV; IgG1 at 20.000 µg/ml.
For test [13] the target is unchanged. Briefly: ELISA on irradiated WNV; IgG1 supernatant diluted 1:5.
Test [14] shares this target. Description: ELISA on irradiated WNV; IgG1 supernatant diluted 1:25.
For test [15] the target is unchanged. Briefly: ELISA on irradiated WNV; IgG1 supernatant diluted 1:125.
Test [16] has the same target. Briefly: ELISA on irradiated WNV; IgG1 at 0.000 µg/ml (no antibody).
Test [17] has the same target.
Test [18] has the same target. Description: SPR as in Example 9, WNV captured via immobilized CR4283, average of duplicates.

B1: SC04-353 (scFv)
scFv: EVQLVQSGGGVVQPGRSLRLSCAASGFTFSNYAMHWVRQAPGKGLEWVAVISYDGGNKYYADSVKGRFTMSRDNSKNTLYLQMNSLRAEDTAVYYCARDFWSGYSMVDSYYYYMDVWGKGTTVTVSSGTGGSGGTGSGTGGSTETTLTQSPGTLSLSPGERATLSCRASQSVSNTFLAWYQQKPGQAPRLLIYGASSRATGIPDRFSGSGSGTDFTLTISRLEPEDFAAYYCQQYGSSLTFGPGTKVDIKR
In the case of B1, the OD 492 nm in test [1] came out at 1 OD.

B2: CR4299 (antibody, V domains shown)
VH: QVQLVESGGGVVQPGRSLRLSCAASGFTFSGYAMHWVRQAPGKGLDWVAVISYDGSEKYSADSVKGRFTISRDNSKNTLYLQMNSLRAEDTAVYYCAKESGGPIWYKYYGVDVWGQGTTVTVSS
VL: SYVLTQPPSLSAAPRQRVTISCSGSSSNIGNYGVNWYQQLPGKAPKLLIYYDDLLPSGVSDRFSGSKSGTSASLAISGLQSEDEGDYYCAAWDDTLSAWVFGGGTKLTVLG
For the molecule B2, the potency in the 66% neutralizing antibody titer assay in [2] came out at 3 µg/mL. Moreover, the OD 492 nm in test [3] is 0.227 OD; in [4] it was 0.446 OD; in test [5], 0.61 OD; in [6] it was 0.756 OD; in test [7], 0.891 OD; in test [8], 0.977 OD. In addition, the OD 492 nm in test [9] amounted to 1.03 OD; in test [10], 1.07 OD; in test [11], 1.12 OD; in [12] it was 1.19 OD; in test [13], 1.48 OD; in test [14], 1.34 OD. Besides, the values for the OD 492 nm in [15] and in [16] were 0.929 OD and 0.003 OD, respectively.

B3: SC04-374 (scFv)
scFv: QVTLKESGPTLVKPTQTLTLTCTFSGFSLSTSGVGVGWIRQPPGKALEWLAVIYWNDDKLYRPSLKSRLTITKDTSKNQVVLTMTKMDPVDTATYYCAHRHRYYDISGYYRLFSDAFDIWGQGTMVTVSSGTGGSGGTGSGTGGSTQSVVTQPPSVSGAPGQRVTISCTGSSSNIGAGYDVHWYQQLPGTAPKLLIYGNSNRPSGVPDRFSGSKSGTSASLAITGLQAEDEADYYCQSYDSSLSGSVFGGGTKLTVLG
B3 came in with an OD 492 nm in test [1] of 0.975 OD.

B4: CR4289 (antibody, V domains shown)
VH: EVQLVQSGAEVKKPGESLRISCKGSGYSFTSNWITWVRQMPGKGLEWMGRIDPSDSYTNYSPSFQGHVTISADKSISTAYLQWSSLKASDTAMYYCARDVVGVGASDYYYYMDVWGQGTTVTVSS
VL: EIVLTQSPGTLSLSPGETATLSCRTSQSVSSSYLGWYQQKPGQAPRLLIYGASIRATGIPARFSGSGSGTEFTLTIDSLQSEDFAVYYCQQYNNWPPITFGQGTRLEIKR
Molecule B4 returned a potency in the 66% neutralizing antibody titer assay in test [2] of 10.1 µg/mL. Besides, the OD 492 nm in [3] worked out at 0.147 OD; in test [4] it was 0.209 OD; in [5], 0.25 OD; in test [6] it was 0.313 OD; in test [7], 0.351 OD; in test [8], 0.415 OD. Moreover, the OD 492 nm in [9] is 0.492 OD; in [10], 0.586 OD; in [11], 0.752 OD; in test [16], 0.003 OD.

B5: CR4353 (antibody, V domains shown)
VH: QVQLVESGGGVVQPGRSLRLSCAASGFTFSNYAMHWVRQAPGKGLEWVAVISYDGGNKYYADSVKGRFTMSRDNSKNTLYLQMNSLRAEDTAVYYCARDFWSGYSMVDSYYYYMDVWGQGTTVTVSS
VL: ETTLTQSPGTLSLSPGERATLSCRASQSVSNTFLAWYQQKPGQAPRLLIYGASSRATGIPDRFSGSGSGTDFTLTISRLEPEDFAAYYCQQYGSSLTFGPGTKVDIKR
Regarding B5, the dissociation constant (Kd) in test [17] is 6.5 nM. Further, the OD 492 nm was found to be 0.595 OD in test [3]; 0.734 OD in [4]; 1.07 OD in test [5]; 1.17 OD in test [6]; 1.33 OD in test [7]; 1.42 OD in test [8]. The OD 492 nm stood at 1.43 OD in [9], 1.55 OD in test [10], 1.57 OD in test [11] and 0.003 OD in test [16].

B6: SC04-361 (scFv)
scFv: EVQLVQSGAEVKKPGESLKISCKASGFSFSTYWIGWVRQMPGKGLEWMGIIYPADSDTRYSPSFQGQVTISADKSISTAYLQWSSLKASDTAMYYCARLRGPYYDFWNGYRETHDAFNVWGQGTMVTVSSGTGGSGGTGSGTGGSTDVVMTQSPDSLAVSLGERATINCKSSQNILDNSDNKNFLAWYQQKPGQPPKLLIYWASARESGVPDRFSGSGSGTDFTLTISSLQAEDVALYYCQQYYNTPITFGQGTRLEIKR
Regarding B6, in test [1], the OD 492 nm was found to be 0.66 OD.

B7: CR5074 (antibody, V domains shown)
VH: QVTLKESGPTLVKPTQTLTLTCTFSGFSLSTSGVGVGWIRQPPGKALEWLAVIYWNDDKLYRPSLKSRLTITKDTSKNQVVLTMTKMDPVDTATYYCAHRHRYYDISGYYRLFSDAFDIWGQGTMVTVSS
VL: QSVLTQPPSVSGAPGQRVTISCTGSSSNIGTGYDVHWYQQLPGTAPKLLIYADTNRPSGVPDRFSGSKSGTSASLAITGVQAEDEADYYCQSYDTSLTGWVFGGGTKVTVLG
Turning to B7, in test [18], the Kd stood at 3.9 nM.

B8: CR5085 (antibody, V domains shown)
VH: B7 VH
VL: B7 VL with L4V, T31A, A52G, D53N, T54S, V80L, A86T, T95S, T98N, V108L
In turn, B8 yielded a Kd in test [18] of 3.7 nM.

B9: CR5080 (antibody, V domains shown)
VH: B7 VH
VL: B7 VL with T31A, A52G, D53N, T54S, V80L, T95S, T98S, V101A, V108L
B9: the Kd in test [18] turned out to be 2.7 nM.

B10: CR5088 (antibody, V domains shown)
VH: B7 VH
VL: QSVVTQPPSVSGAPGQRITISCTGSSSNIGAGYDVHWYQQLPGTAPKFLIYGNSNRPSGVPDRFSGSKSGTSASLAITGLQAEDEADYYCQSYDSSLSGWVFGGGTKLTVLG
Turning to B10, the Kd in test [18] was determined as 1.7 nM.

Broadly, the Kd is a measure of binding affinity in units of concentration.
